B1: NIgG4E2A1(RS) (Fc fusion)
chain 1: DVQLQESGGGLVQAGGSLRLSCAASGRTISRYAVGWFRRPPAKEREFIGINWSGGSTTYADSAEGRFIISRDNAKNTVYLQMNSLKPEDTAVYYCAVPSVLVQGGISNPSQYDYWGQGTQVTVSRSGPPCPPCPAPEFLGGPSVFLFPPKPKDTLMISRTPEVTCVVVDVSQEDPEVQFNWYVDGVEVHNAKTKPREEQFNSTYRVVSVLTVLHQDWLNGKEYKCKVSNKGLPSSIEKTISKAKGQPREPQVYTLPPCQEEMTKNQVSLWCLVKGFYPSDIAVEWESNGQPENNYKTTPPVLDSDGSFFLYSRLTVDKSRWQEGNVFSCSVMHEALHNHYTQKSLSLSLGK
chain 2: EVQLLESGGGLVQPGGSLRLSCAASGFTFGNYDMAWVRQAPGKRPEWVSSIDTGGDITHYADSVKGRFTISRDNAKNTLYLQMNSLRPEDTAVYWCATDEEYALGPNEFDYYGQGTLVTVSSRSGPPCPPCPAPEFLGGPSVFLFPPKPKDTLMISRTPEVTCVVVDVSQEDPEVQFNWYVDGVEVHNAKTKPREEQFNSTYRVVSVLTVLHQDWLNGKEYKCKVSNKGLPSSIEKTISKAKGQPREPQVCTLPPSQEEMTKNQVSLSCAVKGFYPSDIAVEWESNGQPENNYKTTPPVLDSDGSFFLVSRLTVDKSRWQEGNVFSCSVMHEALHNHYTQKSLSLSLGK
B2: NIgG4E2A1(G4S)3 (Fc fusion)
chain 1: DVQLQESGGGLVQAGGSLRLSCAASGRTISRYAVGWFRRPPAKEREFIGINWSGGSTTYADSAEGRFIISRDNAKNTVYLQMNSLKPEDTAVYYCAVPSVLVQGGISNPSQYDYWGQGTQVTVSGGGGSGGGGSGGGGSGPPCPPCPAPEFLGGPSVFLFPPKPKDTLMISRTPEVTCVVVDVSQEDPEVQFNWYVDGVEVHNAKTKPREEQFNSTYRVVSVLTVLHQDWLNGKEYKCKVSNKGLPSSIEKTISKAKGQPREPQVYTLPPCQEEMTKNQVSLWCLVKGFYPSDIAVEWESNGQPENNYKTTPPVLDSDGSFFLYSRLTVDKSRWQEGNVFSCSVMHEALHNHYTQKSLSLSLGK
chain 2: EVQLLESGGGLVQPGGSLRLSCAASGFTFGNYDMAWVRQAPGKRPEWVSSIDTGGDITHYADSVKGRFTISRDNAKNTLYLQMNSLRPEDTAVYWCATDEEYALGPNEFDYYGQGTLVTVSSGGGGSGGGGSGGGGSGPPCPPCPAPEFLGGPSVFLFPPKPKDTLMISRTPEVTCVVVDVSQEDPEVQFNWYVDGVEVHNAKTKPREEQFNSTYRVVSVLTVLHQDWLNGKEYKCKVSNKGLPSSIEKTISKAKGQPREPQVCTLPPSQEEMTKNQVSLSCAVKGFYPSDIAVEWESNGQPENNYKTTPPVLDSDGSFFLVSRLTVDKSRWQEGNVFSCSVMHEALHNHYTQKSLSLSLGK
B3: CIgG4E1A1(G4S)3 (Fc fusion)
chain 1: GPPCPPCPAPEFLGGPSVFLFPPKPKDTLMISRTPEVTCVVVDVSQEDPEVQFNWYVDGVEVHNAKTKPREEQFNSTYRVVSVLTVLHQDWLNGKEYKCKVSNKGLPSSIEKTISKAKGQPREPQVYTLPPCQEEMTKNQVSLWCLVKGFYPSDIAVEWESNGQPENNYKTTPPVLDSDGSFFLYSRLTVDKSRWQEGNVFSCSVMHEALHNHYTQKSLSLSLGKGGGGSGGGGSGGGGSDVQLQESGGGLVQAGGSLRLSCLASGRTFTTTSGYNMGWFRQAPGKEREFVAGIKWVSGSNRAYAESVKGRFTISRDNAKNTVYLQMNSLKPEDTAVYYCAAATGQSYVPIREYEYVYWGQGTQVTVS
chain 2: GPPCPPCPAPEFLGGPSVFLFPPKPKDTLMISRTPEVTCVVVDVSQEDPEVQFNWYVDGVEVHNAKTKPREEQFNSTYRVVSVLTVLHQDWLNGKEYKCKVSNKGLPSSIEKTISKAKGQPREPQVCTLPPSQEEMTKNQVSLSCAVKGFYPSDIAVEWESNGQPENNYKTTPPVLDSDGSFFLVSRLTVDKSRWQEGNVFSCSVMHEALHNHYTQKSLSLSLGKGGGGSGGGGSGGGGSEVQLLESGGGLVQPGGSLRLSCAASGFTFGNYDMAWVRQAPGKRPEWVSSIDTGGDITHYADSVKGRFTISRDNAKNTLYLQMNSLRPEDTAVYWCATDEEYALGPNEFDYYGQGTLVTVSS
B4: CIgG4E2A1(RS) (Fc fusion)
chain 1: GPPCPPCPAPEFLGGPSVFLFPPKPKDTLMISRTPEVTCVVVDVSQEDPEVQFNWYVDGVEVHNAKTKPREEQFNSTYRVVSVLTVLHQDWLNGKEYKCKVSNKGLPSSIEKTISKAKGQPREPQVYTLPPCQEEMTKNQVSLWCLVKGFYPSDIAVEWESNGQPENNYKTTPPVLDSDGSFFLYSRLTVDKSRWQEGNVFSCSVMHEALHNHYTQKSLSLSLGKRSDVQLQESGGGLVQAGGSLRLSCAASGRTISRYAVGWFRRPPAKEREFIGINWSGGSTTYADSAEGRFIISRDNAKNTVYLQMNSLKPEDTAVYYCAVPSVLVQGGISNPSQYDYWGQGTQVTVS
chain 2: GPPCPPCPAPEFLGGPSVFLFPPKPKDTLMISRTPEVTCVVVDVSQEDPEVQFNWYVDGVEVHNAKTKPREEQFNSTYRVVSVLTVLHQDWLNGKEYKCKVSNKGLPSSIEKTISKAKGQPREPQVCTLPPSQEEMTKNQVSLSCAVKGFYPSDIAVEWESNGQPENNYKTTPPVLDSDGSFFLVSRLTVDKSRWQEGNVFSCSVMHEALHNHYTQKSLSLSLGKRSEVQLLESGGGLVQPGGSLRLSCAASGFTFGNYDMAWVRQAPGKRPEWVSSIDTGGDITHYADSVKGRFTISRDNAKNTLYLQMNSLRPEDTAVYWCATDEEYALGPNEFDYYGQGTLVTVSS
B5: NIgG4E2A1(G4S)2 (Fc fusion)
chain 1: DVQLQESGGGLVQAGGSLRLSCAASGRTISRYAVGWFRRPPAKEREFIGINWSGGSTTYADSAEGRFIISRDNAKNTVYLQMNSLKPEDTAVYYCAVPSVLVQGGISNPSQYDYWGQGTQVTVSGGGGSGGGGSGPPCPPCPAPEFLGGPSVFLFPPKPKDTLMISRTPEVTCVVVDVSQEDPEVQFNWYVDGVEVHNAKTKPREEQFNSTYRVVSVLTVLHQDWLNGKEYKCKVSNKGLPSSIEKTISKAKGQPREPQVYTLPPCQEEMTKNQVSLWCLVKGFYPSDIAVEWESNGQPENNYKTTPPVLDSDGSFFLYSRLTVDKSRWQEGNVFSCSVMHEALHNHYTQKSLSLSLGK
chain 2: EVQLLESGGGLVQPGGSLRLSCAASGFTFGNYDMAWVRQAPGKRPEWVSSIDTGGDITHYADSVKGRFTISRDNAKNTLYLQMNSLRPEDTAVYWCATDEEYALGPNEFDYYGQGTLVTVSSGGGGSGGGGSGPPCPPCPAPEFLGGPSVFLFPPKPKDTLMISRTPEVTCVVVDVSQEDPEVQFNWYVDGVEVHNAKTKPREEQFNSTYRVVSVLTVLHQDWLNGKEYKCKVSNKGLPSSIEKTISKAKGQPREPQVCTLPPSQEEMTKNQVSLSCAVKGFYPSDIAVEWESNGQPENNYKTTPPVLDSDGSFFLVSRLTVDKSRWQEGNVFSCSVMHEALHNHYTQKSLSLSLGK
B6: NIgG4E2A1(G4S)1 (Fc fusion)
chain 1: DVQLQESGGGLVQAGGSLRLSCAASGRTISRYAVGWFRRPPAKEREFIGINWSGGSTTYADSAEGRFIISRDNAKNTVYLQMNSLKPEDTAVYYCAVPSVLVQGGISNPSQYDYWGQGTQVTVSGGGGSGPPCPPCPAPEFLGGPSVFLFPPKPKDTLMISRTPEVTCVVVDVSQEDPEVQFNWYVDGVEVHNAKTKPREEQFNSTYRVVSVLTVLHQDWLNGKEYKCKVSNKGLPSSIEKTISKAKGQPREPQVYTLPPCQEEMTKNQVSLWCLVKGFYPSDIAVEWESNGQPENNYKTTPPVLDSDGSFFLYSRLTVDKSRWQEGNVFSCSVMHEALHNHYTQKSLSLSLGK
chain 2: EVQLLESGGGLVQPGGSLRLSCAASGFTFGNYDMAWVRQAPGKRPEWVSSIDTGGDITHYADSVKGRFTISRDNAKNTLYLQMNSLRPEDTAVYWCATDEEYALGPNEFDYYGQGTLVTVSSGGGGSGPPCPPCPAPEFLGGPSVFLFPPKPKDTLMISRTPEVTCVVVDVSQEDPEVQFNWYVDGVEVHNAKTKPREEQFNSTYRVVSVLTVLHQDWLNGKEYKCKVSNKGLPSSIEKTISKAKGQPREPQVCTLPPSQEEMTKNQVSLSCAVKGFYPSDIAVEWESNGQPENNYKTTPPVLDSDGSFFLVSRLTVDKSRWQEGNVFSCSVMHEALHNHYTQKSLSLSLGK

Chain of mixture of three Der p 2 specific recombinant human IgE clones H10, H12, P4E (human) (P01854 other isoform, or with tags, fused parts or gaps): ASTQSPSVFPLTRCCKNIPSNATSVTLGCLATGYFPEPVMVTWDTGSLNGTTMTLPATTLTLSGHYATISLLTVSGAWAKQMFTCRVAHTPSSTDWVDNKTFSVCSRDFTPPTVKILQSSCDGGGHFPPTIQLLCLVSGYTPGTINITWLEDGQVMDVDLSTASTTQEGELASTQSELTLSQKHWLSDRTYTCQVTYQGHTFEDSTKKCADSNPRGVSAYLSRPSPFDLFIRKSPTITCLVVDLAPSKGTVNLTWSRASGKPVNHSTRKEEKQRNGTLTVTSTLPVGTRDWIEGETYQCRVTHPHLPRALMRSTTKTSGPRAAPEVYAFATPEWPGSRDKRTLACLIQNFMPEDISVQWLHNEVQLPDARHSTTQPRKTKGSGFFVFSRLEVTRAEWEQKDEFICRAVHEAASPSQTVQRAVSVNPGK

This experiment addresses mixture of three Der p 2 specific recombinant human IgE clones H10, H12, P4E (human) (UniProt P01854). Put plainly: RBL-SX38 IgE displacement, FACS.
For the molecule B1, the EC50 came out at 2 nM and the Max effect/effect 1 µM came to 97%. As to B2, the EC50 turned out to be 2 nM and the Max effect/effect 1 µM came out at 97%. For the molecule B3, the 50% effective concentration (EC50) was 24.1 nM and the Max effect/effect 1 µM was 99%. As for B4, the Max effect/effect 1 µM stood at 6%.

Take B5: the EC50 is 1.9 nM and the Max effect/effect 1 µM is 98%. Regarding B6, the EC50 was 2.3 nM and the Max effect/effect 1 µM was found to be 95%.

Broadly, the EC50 is the concentration giving half of the maximal effect.

The record behind these values is US20250171562A1.
